The data set in a line: yeast display, Sf9 membrane polyspecificity reagent, FACS + sequencing; frameworks hold sequencing errors. The gist of the method: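 Synthetic nanobody libraries on Saccharomyces cerevisiae BJ5465 were galactose-induced for 36–48 hours, stained 1 hour at 4 °C with 10% biotinylated, detergent-solubilized Sf9 membrane reagent and enriched on streptavidin microbeads. FACS then separated cells into low and high (top ~1%) gates by anti-HA (expression) and streptavidin (reagent binding) fluorescence. Genes were colony-PCR amplified, MiSeq 2 × 250 sequenced and CDR-length filtered. A clone's polyreactivity label is that of its gate of origin.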
On to “QVQLVESGGGLVQAGGSLRLSCAASGRIFYRYGMGWYRQAPGKERELVASITRGGSTYYADSVKGRFTISRDNAKNTVYLQMNSLKPEDTAVYYCNAQTRYRYQYGYLGGTGYNYWGQGTQVTVSS”, for which the “polyreactivity (PSR sort gate)” value was “low polyreactivity”. As to “QVQLVESGGGLVQAGGSLRLSCAASGRIFYRYGMGWYRQAPGKERELVASITRGGSTYYADSVKGRFTISRDNAKYTVYLQMNSLKPEDTAVYYCATKSSAGYDYWGQGTQVTVSS”, the “polyreactivity (PSR sort gate)” value is on record as “low polyreactivity”. For “QVQLVESGGGLVQAGGSLRLSCAASGRIFYRYSMGWYRQAPGKERELVAGISSGGRTNYADSVKGRFTISRDNAKNTVYLQMNSLKPEDTAVYYCNKARSRWSDARSSFGYDYWGQGTQVTVSS”, the “polyreactivity (PSR sort gate)” value is reported as “low polyreactivity”. In the case of “QVQLVESGGGLVQAGGSLRLSCAASGRIFYSNAIGWYRQAPGKERELVAAIRDSAGSTRYADSVKGRFTISRDNAKNTVYLQMNSLKPVDTAVYYCNKDYVSIYFEYLDDYWGQGTQVTVSS”, the “polyreactivity (PSR sort gate)” value is listed as “low polyreactivity”. The result for “QVQLVESGGGLVQAGGSLRLSCAASGRIFYSNAMGWYRQAPGKERELVAAIRDSAGSTRYADSVKGRFTISRDNAKNTVYLQMNSLKPEDTAVYYCNKDYVSIYFEYLDDYWGQGTQVTVSS” reads “low polyreactivity”; that for “QVQLVESGGGLVQAGGSLRLSCAASGRIFYSYAMGGYRQAPGKERELVAAISSAGSTYYADSVKGSFTISRDNAKNTVYLQMNSLKPEDTAVYYSAKGIWPYHGYRLQRVYDSWGQGTQVTVSS”, “high polyreactivity”; that for “QVQLVESGGGLVQAGGSLRLSCAASGRIFYSYAMGWYRQAPGKELELVAAIDESDGSTYYADSVKGRFTISRDNAKNTVYLQMNSLKPEDTAVYYCAADSLLVLFDYWGQGTQVTVSS”, “low polyreactivity”. The entry for “QVQLVESGGGLVQAGGSLRLSCAASGRIFYSYAMGWYRQAPGKERELVARISSGGSTNYADSVKGRFTISRDNAKNTVYLQMNSLNPEDTAVYYCAAATIWSGVHYGYWGQGTQVTVSS” is “low polyreactivity”; for “QVQLVESGGGLVQAGGSLRLSCAASGRIFYSYAMGWYRQAPGKERELVAVITYRGGRTYYADSVKGRFTISRDNAKNTVYLQMNSLKPEDTAVYYCARDPQFYLHTVTDGAYNYWGQGTQVTVSS” it is “low polyreactivity”; for “QVQLVESGGGLVQAGGSLRLSCAASGRIFYSYGMGWSRQGPGKERELVASITISGGGSTYYADSVKGRFTISRDNAKNTVYLQMISLKPEATAVYYCAATLTVWKYIYDYWGQGTQVTVSS” it is “high polyreactivity”.

As for “QVQLVESGGGLVQAGGSLRLSCAASGRIFYSYTMGWYRQAPGKERELVAGINRSVGSTYYADSVKGRFTISRDNAKNTVYLQMNSLKPEDTAVYYCAAGSRRRSYYTFSSVHGHYYWGQVTQVTVSS”, the “polyreactivity (PSR sort gate)” value was “high polyreactivity”. Consider “QVQLVESGGGLVQAGGSLRLSCAASGRIFYTNAMGWYRQAPGKERELVATISSSGGRTYLRNSVKGRFTLSRDNAKNTVYLQMNSLKPEDTAVDYCAAGWSYPVRNIYYYWGQGTQVTVSS”, for which the “polyreactivity (PSR sort gate)” value is recorded as “high polyreactivity”. The result for “QVQLVESGGGLVQAGGSLRLSCAASGRIFYTNTMGWYRQAPGKERELVAAIRSGTRTYYADSVKGRFTISRDNAKNTVYLQMNSLKPEDTAVYYCAAYYSYYGGDYWGQGTQVTVSS” reads “low polyreactivity”; that for “QVQLVESGGGLVQAGGSLRLSCAASGRIFYVNVMGWYRQAPGKERELVAAIYWSDGSTYYADSVKGRFTISRDNAKNTVYLQMNSLKPEDTAVYYCNRRGPYGYKAWAIGTIGDLDYWGQGTQVTVSS”, “low polyreactivity”; that for “QVQLVESGGGLVQAGGSLRLSCAASGRIFYVYAMGGYRQAPGKERELVAGITSGGSTTYADSVKGRFTISRDNAKNTVYLQMNSLKPEDTAVYYCAALQRQSYWTYGYWGHGTQVTVSS”, “high polyreactivity”. Regarding “QVQLVESGGGLVQAGGSLRLSCAASGRIFYWNAMGCYRQAPGKERELVADISTGGSTYYADSVKGRFTISRDNAKNTVYLQMNRLKPEDTAVYYCAVVYVSLWPSATDWSGFGYWGQGTQVTVSS”, the “polyreactivity (PSR sort gate)” value is on record as “low polyreactivity”. The result for “QVQLVESGGGLVQAGGSLRLSCAASGRIFYWNTMGWYRQAPGKEREFVAAITYGGGRTYYADSVKGRFTISRDNAKNTVYLQMNSLKPEDTAVYYCARRIPTLYLDYDYCGQGTQVTVSS” reads “high polyreactivity”; that for “QVQLVESGGGLVQAGGSLRLSCAASGRIFYWYAMAWYRQAPGKERELVAAITSGGSTYYADSVKGRFTISRDNAKNTVYLQMNSLKPEDTAVYYCAADLYYWGDYDYWGQGTQVTVSS”, “low polyreactivity”; that for “QVQLVESGGGLVQAGGSLRLSCAASGRIFYWYAMGWYRQAPGKERELVAAISSTGRTKYADSVKGRFTISRDNAKNTVDLQMNSLKPEDTAVYYCAKRRAAVNGRSDYYYWGQGTQVTVSS”, “high polyreactivity”. Take “QVQLVESGGGLVQAGGSLRLSCAASGRIFYYAMGWYRQAPGKERELVAVITYSGGNTYYADSVKGRFTISRDNAKNTVYLQMNSLKPEDTAVYYCAKAVSTKISRYYHYYKHYDYWGQGTQVTVSS”: the “polyreactivity (PSR sort gate)” value was “low polyreactivity”. The result for “QVQLVESGGGLVQAGGSLRLSCAASGRIFYYNAIGWYRQAPGKERELVATITRAGGTYYADSVKGRFTISRDNAKNTVYLQMNSLKPEDTAVYYCAKRHPIVDDYKGDYWGQGTQVTVSS” reads “low polyreactivity”.

Regarding “QVQLVESGGGLVQAGGSLRLSCAASGRIFYYNAMGWYRQAPGKERELVAAINIGGGTKYADSVKGRFTISRDNAKNTVYLQMNSLKPEDTAVYYCAAGIKRYLSYYTRYGYWGQGTQVTVSS”, the “polyreactivity (PSR sort gate)” value is recorded as “high polyreactivity”. The result for “QVQLVESGGGLVQAGGSLRLSCAASGRIFYYNAMGWYRQAPGKERELVAAISWDGGSTYYADSVKGRFTISRDNAKNTVYLQMNSLKAEDTAVYYCAVDLYGTWYPTWFNYWGQGTQVTVSS” reads “low polyreactivity”. The entry for “QVQLVESGGGLVQAGGSLRLSCAASGRIFYYNAMGWYRQAPGKERELVAAISYRGASTYYADSVKGRFTISRDNAKNTVYLQMNSLKPEDTAVYYCAAVTISKGFYPYDYWGQGTQVTVSS” is “high polyreactivity”; for “QVQLVESGGGLVQAGGSLRLSCAASGRIFYYNAMGWYRQAPGKERELVATITGSGGSTYYADSVKGRFTISRDNAKNTVYLQMNSLKPEDTAVYYCNATRWYYDFYKLDYWGQGTQVTVSS” it is “low polyreactivity”. Turning to “QVQLVESGGGLVQAGGSLRLSCAASGRIFYYNDLGWYRQAPGKERELVAAISGSGGSTYYADSVKGRFTISRDNAKNTVYLQMNSLKPEDTAVYYCSYYYWGQGTQVTVSS”, the “polyreactivity (PSR sort gate)” value is “low polyreactivity”.

Regarding “QVQLVESGGGLVQAGGSLRLSCAASGRIFYYNGMGWYRQAPGKERELVASIPRTSGRTFYADSVKGRFTISRDKAKNTVYLQMNSLKPEDTAVYYCAAVGSRYVLGEYGYWGQGTQVTVSS”, the “polyreactivity (PSR sort gate)” value is on record as “high polyreactivity”. The result for “QVQLVESGGGLVQAGGSLRLSCAASGRIFYYNTMGWYRQAPGKEREFVAAITGSGGITYYADSVKGRFTISRDNAKNTVYLQMNSLKPEDTAVYYCAARTRYSIYRYYYWGQGTQVTVSS” reads “high polyreactivity”; that for “QVQLVESGGGLVQAGGSLRLSCAASGRIFYYNTMGWYRQAPGKERELVAAITTNGGSTYYADSVKGRFTISRDNAKNTVYLQMNSLKPEDTAVYYCNRDRYPYYYAYNYWGQGTQVTVSS”, “low polyreactivity”; that for “QVQLVESGGGLVQAGGSLRLSCAASGRIFYYYAMGLYRQAPGKERELVAAISGSGGTTYNADSVKGRITISRDHAKNTVYLQMNSLKPEDTAVYYCAEVQYRYAREYYYWGQCTQVTVSS”, “high polyreactivity”. The result for “QVQLVESGGGLVQAGGSLRLSCAASGRIFYYYAMGWYRQAPGKEREFVADISARGGSTYYADSVKGRFTISRDTAKNTVYLQMNSLKPEDTAVYYCAATTGLYTRYGYWGQGTQVTVSS” reads “high polyreactivity”; that for “QVQLVESGGGLVQAGGSLRLSCAASGRIFYYYAMGWYRQAPGKEREIVAAISASGGSTYADSVKGRFTISRDNAKNTVYLQMNSLKPEDTAVYYCATVYYYTYAWLDLYGGYTFEYWGQGTQVTVSS”, “low polyreactivity”. In the case of “QVQLVESGGGLVQAGGSLRLSCAASGRIFYYYAMGWYRQAPGKERELVAAITWSGGSTYYADSVKGRFTISRDNAKNTVYLQMNSLKPEDTAVYYCAAEWAYWDEWSGDYYLLGYWGQGTQVTVSS”, the “polyreactivity (PSR sort gate)” value is on record as “high polyreactivity”.

Take “QVQLVESGGGLVQAGGSLRLSCAASGRIGRYAMGWYRQAPGKESELVAVITSGDSTYYADSVKGRFTITRDNAKNTVYFQMNSLKPEDTAVYYCAADSYRRWGILFTGNEYDSWGQGTQVTVSS”: the “polyreactivity (PSR sort gate)” value is given as “low polyreactivity”.

Regarding “QVQLVESGGGLVQAGGSLRLSCAASGRIGYNAMGWYRQAPGKERELVAAISSRGGSTYYADSVKGRFTISRDNAKNTVYLQMNSLKPEDTAVYYCNADYEARTRLGEYDYWGQGTQVTVSS”, the “polyreactivity (PSR sort gate)” value is reported as “high polyreactivity”. With “QVQLVESGGGLVQAGGSLRLSCAASGRIHTYAMGWYRQAPGKERELVAAISFSGGSTYYADSVKGRFTISRDNAKNTVYLQMNSLKPEDTAVYYCAAGGGPNYFVDYGIRYDNWGQGTQVTVSS”, the “polyreactivity (PSR sort gate)” value is “low polyreactivity”.

As to “QVQLVESGGGLVQAGGSLRLSCAASGRIIATNAMGWNRQAPGKERELVATITRSAGRTYYADSVKGRFTISRDNAKNTVYLHMNSLKPEDTAVYYCAASYWYTEPGYREYDYWGQGTQVTVSS”, the “polyreactivity (PSR sort gate)” value is on record as “low polyreactivity”. Regarding “QVQLVESGGGLVQAGGSLRLSCAASGRIIGKNAMGWYRQAPGKERELVAAIRYNGGRTYYADSVKGRFTISRDNAKNTVYLQMNSLKPEDTAVYYCATRTYRVDPEFGYWGQGTQVTVSS”, the “polyreactivity (PSR sort gate)” value was “high polyreactivity”.

On to “QVQLVESGGGLVQAGGSLRLSCAASGRIIGNYAMGWYRPAPGKERELVARISQSGGSTYYADSVKGRFTISRDHAKNSLYLQMNSLKPEDTAVYYCAKRGRYRYDRDNRYEYWGQGTQVNVSS”, for which the “polyreactivity (PSR sort gate)” value was “low polyreactivity”. Turning to “QVQLVESGGGLVQAGGSLRLSCAASGRIIGVNAMGWYRQAPGKERELVAAISWSGGSTYYADSVKGRFTISRDNAKNTVYLQMNSLKPEDTAVYYCATTYFYARRPRGDYWGQGTQVTVSS”, the “polyreactivity (PSR sort gate)” value is reported as “high polyreactivity”.
